In patent US20210309696A1 (ENLITISA SHANGHAI PHARMACEUTICAL, published 2021):
Non-standard residues stand in square brackets, D forms with d. No end group written: not given here. Hyp = O=C(O)[C@@H]1C[C@@H](O)CN1

T1: CysLTR1 (cysteinyl leukotriene receptor CysLT1), expressed in the CYSLTR1/HEK293 cell line (UniProt Q9Y271 1-337, limits assumed)
T1 sequence (looked up): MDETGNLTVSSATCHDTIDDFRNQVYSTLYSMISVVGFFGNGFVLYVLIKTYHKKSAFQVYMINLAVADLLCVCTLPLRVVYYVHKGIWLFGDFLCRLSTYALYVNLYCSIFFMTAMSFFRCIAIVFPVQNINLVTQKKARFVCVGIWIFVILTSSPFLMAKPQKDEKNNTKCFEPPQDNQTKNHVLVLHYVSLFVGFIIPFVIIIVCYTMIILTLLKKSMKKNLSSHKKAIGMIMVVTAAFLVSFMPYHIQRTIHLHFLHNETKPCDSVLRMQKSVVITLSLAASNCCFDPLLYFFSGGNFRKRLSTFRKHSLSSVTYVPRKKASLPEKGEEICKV


Columns and labels:
Assay in all cases: cell-based or functional assay
[1] = molecular target: CysLTR1 (cysteinyl leukotriene receptor CysLT1), expressed in the CYSLTR1/HEK293 cell line (UniProt Q9Y271)
[2] = molecular target: T1, CysLTR1 (cysteinyl leukotriene receptor …)
[3] = molecular target: T1, CysLTR1 (cysteinyl leukotriene receptor …); remark: listed apart in the source
[4] = molecular target: T1, CysLTR1 (cysteinyl leukotriene receptor …); remark: listed apart in the source

IC50 (nM), in vitro CysLTR1 FLIPR antagonist test (Fluo-4 calcium assay, CYSLTR1/HEK293 cells) [1] [nM]	IC50 (nM), in vitro CysLTR1 FLIPR antagonist test (Fluo-4 calcium assay, CYSLTR1/HEK293 cells) [2] [nM]	IC50 (nM), in vitro CysLTR1 FLIPR antagonist test (Fluo-4 calcium assay, CYSLTR1/HEK293 cells), repeat [3] [nM]	affinity to CysLTR1 relative to Compound A, derived from the FLIPR antagonist IC50s [4] [fold against Compound A]	Molecule
99.5				Montelukast-Ala-Lys-Pro-Ser-Tyr-Hyp-Thr-Tyr-Hyp-Lys (montelukast covalently bonded at the N-terminus) (peptide)
	90.5	140	5	montelukast-AKPSY[Hyp][Hyp]TYK
	475			{montelukast styrene}-AKPSY[Hyp][Hyp]TYK
